The supplement of paper PMC9112550, “Optimization of the antimicrobial peptide Bac7 by deep mutational scanning” (BMC Biology, 2022)

System: Escherichia coli TOP10
Assay: shrunken log2 fold change of peptide-encoding DNA abundance (4.5 h post-induction vs induction); higher = less antimicrobial activity (less host growth inhibition)
Settings: time post-induction: 4.5 h; library: site-saturation at positions 5, 18, 19, 20
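Further: peptides expressed intracellularly from a pBAD plasmid library in pooled LB shake-flask culture, induced with 0.3% L-arabinose, DNA abundance read by NGS, three biological replicates, DESeq2 with apeglm shrinkage.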

Row | Sequence | shrunken log2 fold change
1 | RRIRTRPPRLPRPRPRPRRCPRP | 0.0091
2 | RRIRPRPPRLPRPRPRPNANPRP | 0.0132
3 | RRIRTRPPRLPRPRPRPSLVPRP | 0.0852
4 | RRIRMRPPRLPRPRPRPPPWPRP | 1.38
5 | RRIRKRPPRLPRPRPRPWCTPRP | -0.0115
6 | RRIRQRPPRLPRPRPRPCAKPRP | 0.0917
7 | RRIRRRPPRLPRPRPRPDLLPRP | 0.0733
8 | RRIRHRPPRLPRPRPRPQKLPRP | -0.52
9 | RRIRVRPPRLPRPRPRPTFCPRP | -0.0418
10 | RRIRSRPPRLPRPRPRPCNNPRP | -0.332
11 | RRIRGRPPRLPRPRPRPSTNPRP | 0.271
12 | RRIRHRPPRLPRPRPRPTYLPRP | -0.133
13 | RRIRERPPRLPRPRPRPEYNPRP | -0.274
14 | RRIRPRPPRLPRPRPRPGKLPRP | -0.4
15 | RRIRQRPPRLPRPRPRPHAKPRP | 0.12
16 | RRIRPRPPRLPRPRPRPWNTPRP | -0.0902
17 | RRIRFRPPRLPRPRPRPLCTPRP | -0.137
18 | RRIRVRPPRLPRPRPRPIWVPRP | 0.154
19 | RRIRFRPPRLPRPRPRPRTWPRP | 0.544
20 | RRIRERPPRLPRPRPRPGGKPRP | -0.0276
21 | RRIRARPPRLPRPRPRPFNVPRP | 0.0338
22 | RRIRWRPPRLPRPRPRPWRRPRP | 0.117
23 | RRIRTRPPRLPRPRPRPSQHPRP | -0.387
24 | RRIRIRPPRLPRPRPRPSNPPRP | -0.74
25 | RRIRRRPPRLPRPRPRPSRGPRP | 0.432

Row | Sequence | shrunken log2 fold change
26 | RRIRERPPRLPRPRPRPHWGPRP | 0.0212
27 | RRIRSRPPRLPRPRPRPDKGPRP | -0.108
28 | RRIRHRPPRLPRPRPRPYTLPRP | -0.611
29 | RRIRCRPPRLPRPRPRPTCPPRP | -0.26
30 | RRIRKRPPRLPRPRPRPEHNPRP | 0.368
31 | RRIRDRPPRLPRPRPRPGSHPRP | 0.235
32 | RRIRVRPPRLPRPRPRPDVIPRP | -0.0508
33 | RRIRLRPPRLPRPRPRPDFKPRP | -0.06
34 | RRIRVRPPRLPRPRPRPALPPRP | 0.329
35 | RRIRTRPPRLPRPRPRPLWAPRP | 0.277
36 | RRIRWRPPRLPRPRPRPFLGPRP | -0.552
37 | RRIRVRPPRLPRPRPRPIVDPRP | -0.142
38 | RRIRPRPPRLPRPRPRPSHPPRP | -0.03
39 | RRIRPRPPRLPRPRPRPDEQPRP | 0.318
40 | RRIRLRPPRLPRPRPRPCMEPRP | 0.115
41 | RRIRTRPPRLPRPRPRPLAYPRP | -0.982
42 | RRIRVRPPRLPRPRPRPVIWPRP | 0.286
43 | RRIRMRPPRLPRPRPRPWFDPRP | 0.00362
44 | RRIRQRPPRLPRPRPRPMWFPRP | 0.153
45 | RRIRFRPPRLPRPRPRPQPSPRP | 0.279
46 | RRIRRRPPRLPRPRPRPKTYPRP | -0.239
47 | RRIRCRPPRLPRPRPRPDNRPRP | -0.132
48 | RRIRCRPPRLPRPRPRPWDDPRP | 0.0755
49 | RRIRGRPPRLPRPRPRPMDEPRP | 0.237
50 | RRIRDRPPRLPRPRPRPLCAPRP | 0.783

Row | Sequence | shrunken log2 fold change
51 | RRIRLRPPRLPRPRPRPMHRPRP | -0.274
52 | RRIRSRPPRLPRPRPRPNLQPRP | -0.141
53 | RRIRYRPPRLPRPRPRPSASPRP | -0.071
54 | RRIRSRPPRLPRPRPRPYEPPRP | -0.619
55 | RRIRCRPPRLPRPRPRPGTRPRP | 0.139
56 | RRIRRRPPRLPRPRPRPNFWPRP | 0.198
57 | RRIRHRPPRLPRPRPRPKAHPRP | -0.145
58 | RRIRVRPPRLPRPRPRPNYDPRP | 0.273
59 | RRIRNRPPRLPRPRPRPAAAPRP | 0.43
60 | RRIRERPPRLPRPRPRPVATPRP | 0.124
61 | RRIRARPPRLPRPRPRPHTVPRP | -0.0287
62 | RRIRPRPPRLPRPRPRPPPEPRP | 0.492
63 | RRIRIRPPRLPRPRPRPAIEPRP | -0.0797
64 | RRIRPRPPRLPRPRPRPSDNPRP | -0.449
65 | RRIRIRPPRLPRPRPRPISPPRP | 0.0361
66 | RRIRYRPPRLPRPRPRPQGFPRP | -0.0121
67 | RRIRPRPPRLPRPRPRPDQGPRP | -0.0018
68 | RRIRIRPPRLPRPRPRPAPGPRP | 0.371
69 | RRIRCRPPRLPRPRPRPTDLPRP | 0.0853
70 | RRIRCRPPRLPRPRPRPVGIPRP | -0.24
71 | RRIRMRPPRLPRPRPRPVCMPRP | 0.392
72 | RRIRDRPPRLPRPRPRPRHQPRP | 0.0533
73 | RRIRPRPPRLPRPRPRPNYPPRP | -0.392
74 | RRIRCRPPRLPRPRPRPPGMPRP | 0.326
75 | RRIRMRPPRLPRPRPRPAAAPRP | 2.93

Row | Sequence | shrunken log2 fold change
76 | RRIRHRPPRLPRPRPRPELSPRP | 0.252
77 | RRIRLRPPRLPRPRPRPKCEPRP | 0.0288
78 | RRIRSRPPRLPRPRPRPMHEPRP | -0.271
79 | RRIRFRPPRLPRPRPRPLIWPRP | -0.13
80 | RRIRARPPRLPRPRPRPTYRPRP | 0.0376
81 | RRIRKRPPRLPRPRPRPLMNPRP | 0.158
82 | RRIRLRPPRLPRPRPRPAAFPRP | 0.184
83 | RRIRRRPPRLPRPRPRPVVHPRP | -0.157
84 | RRIRVRPPRLPRPRPRPGEFPRP | 0.119
85 | RRIRHRPPRLPRPRPRPIMWPRP | -0.0163
86 | RRIRWRPPRLPRPRPRPPFYPRP | -0.00501
87 | RRIRIRPPRLPRPRPRPIWIPRP | -0.269
88 | RRIRQRPPRLPRPRPRPHTPPRP | -0.147
89 | RRIRNRPPRLPRPRPRPDEFPRP | -0.0168
90 | RRIRFRPPRLPRPRPRPQYSPRP | -0.581
91 | RRIRRRPPRLPRPRPRPNILPRP | -0.0406
92 | RRIRNRPPRLPRPRPRPWSYPRP | -0.0175
93 | RRIRNRPPRLPRPRPRPRLAPRP | 0.404
94 | RRIRVRPPRLPRPRPRPLPIPRP | -0.398
95 | RRIRWRPPRLPRPRPRPAAWPRP | 0.121
96 | RRIRQRPPRLPRPRPRPHLDPRP | -0.0359
97 | RRIRSRPPRLPRPRPRPTWDPRP | 0.53
98 | RRIRVRPPRLPRPRPRPTQKPRP | 0.837
99 | RRIRCRPPRLPRPRPRPHIMPRP | -1.4
100 | RRIRHRPPRLPRPRPRPFQLPRP | -0.0386

Row | Sequence | shrunken log2 fold change
101 | RRIRDRPPRLPRPRPRPTFAPRP | 0.454
102 | RRIRGRPPRLPRPRPRPCRFPRP | 0.116
103 | RRIRPRPPRLPRPRPRPNYIPRP | -0.739
104 | RRIRMRPPRLPRPRPRPEARPRP | 1.76
105 | RRIRNRPPRLPRPRPRPSEDPRP | -0.145
106 | RRIRARPPRLPRPRPRPRQCPRP | 0.353
107 | RRIRKRPPRLPRPRPRPQSQPRP | 0.249
108 | RRIRYRPPRLPRPRPRPVTPPRP | -0.118
109 | RRIRSRPPRLPRPRPRPTHQPRP | 0.417
110 | RRIRPRPPRLPRPRPRPGAGPRP | 0.555
111 | RRIRRRPPRLPRPRPRPGMYPRP | -0.0527
112 | RRIRLRPPRLPRPRPRPEDFPRP | 0.0854
113 | RRIRSRPPRLPRPRPRPVTVPRP | -0.057
114 | RRIRNRPPRLPRPRPRPMSAPRP | 0.0853
115 | RRIRCRPPRLPRPRPRPRCTPRP | -0.00347
116 | RRIRHRPPRLPRPRPRPEMYPRP | 0.000706
117 | RRIRCRPPRLPRPRPRPCVMPRP | -0.0643
118 | RRIRIRPPRLPRPRPRPTMMPRP | -0.0891
119 | RRIRRRPPRLPRPRPRPASHPRP | 0.4
120 | RRIRCRPPRLPRPRPRPANGPRP | -0.0497
121 | RRIRMRPPRLPRPRPRPPYKPRP | -0.163
122 | RRIRWRPPRLPRPRPRPMWNPRP | -0.0699
123 | RRIRQRPPRLPRPRPRPTLIPRP | -0.131
124 | RRIRSRPPRLPRPRPRPHVKPRP | -0.00963
125 | RRIRRRPPRLPRPRPRPMDKPRP | -0.283
